Common to all, as to assay: cell-based or functional assay
The target in assay [1] is T1, human ENTPD2 expressed on cells (human, UniProt Q9Y5L3 1-495).
T1 sequence: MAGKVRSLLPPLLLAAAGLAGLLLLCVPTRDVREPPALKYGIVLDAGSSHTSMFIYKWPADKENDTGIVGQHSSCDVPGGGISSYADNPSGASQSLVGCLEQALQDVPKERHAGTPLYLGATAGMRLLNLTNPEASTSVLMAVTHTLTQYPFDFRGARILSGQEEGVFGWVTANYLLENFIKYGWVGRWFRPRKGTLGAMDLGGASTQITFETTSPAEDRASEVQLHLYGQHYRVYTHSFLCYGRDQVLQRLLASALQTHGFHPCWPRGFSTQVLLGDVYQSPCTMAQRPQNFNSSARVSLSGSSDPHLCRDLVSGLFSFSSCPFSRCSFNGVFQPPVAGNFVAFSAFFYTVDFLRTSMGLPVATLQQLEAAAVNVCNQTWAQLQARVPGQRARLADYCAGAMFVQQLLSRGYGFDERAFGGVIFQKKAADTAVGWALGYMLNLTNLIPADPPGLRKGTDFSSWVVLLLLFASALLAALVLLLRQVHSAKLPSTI

Assay [2] deals with recombinant human ENTPD2 extracellular domain (residues 29-462) with C-terminal Avi-His6 tag (human, UniProt Q9Y5L3 29-462, biotinylated on the AviTag in the epitope binning assay).
The target in assay [3] is T2, cyno ENTPD2 expressed on NIH/3T3 cells (cynomolgus macaque, UniProt Q9Y5L3 1-495 (human entry)).
T2 chain: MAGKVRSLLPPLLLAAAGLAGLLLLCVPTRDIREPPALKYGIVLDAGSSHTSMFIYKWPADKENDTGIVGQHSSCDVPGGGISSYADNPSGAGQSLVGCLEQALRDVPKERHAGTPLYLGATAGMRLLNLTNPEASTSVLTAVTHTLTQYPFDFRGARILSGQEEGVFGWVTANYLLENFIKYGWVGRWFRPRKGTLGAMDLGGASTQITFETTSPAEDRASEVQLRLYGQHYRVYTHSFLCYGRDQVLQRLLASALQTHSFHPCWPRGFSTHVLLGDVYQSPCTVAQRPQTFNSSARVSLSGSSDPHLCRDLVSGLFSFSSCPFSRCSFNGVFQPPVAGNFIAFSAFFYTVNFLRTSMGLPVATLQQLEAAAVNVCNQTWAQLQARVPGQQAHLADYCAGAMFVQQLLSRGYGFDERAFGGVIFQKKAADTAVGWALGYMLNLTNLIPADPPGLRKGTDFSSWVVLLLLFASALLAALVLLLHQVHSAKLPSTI

Here are results for seven molecules from patent publication US20220348651A1 (Novartis, published 2022).

B1: ANTI-HUMAN ENTPD2 MAB11 (antibody, human IgG1, kappa, V domains shown)
VH: EVQLLESGGGLVQSGGSLRLSCAASGFTFSSYAMSWVRQAPGKGLEWVSVISGSGGSTYYADSVKGRFTISRDNSKNTLYLQMNSLRAEDTAVYYCARGDDYGDDYYYYGMDVWGQGTTVTVSS
VL: not shown
In the case of B1, in assay [1], the “% inhibition, Human ENTPD2 NIH/3T3 Assay” value amounted to 55% and the “IC50, Human ENTPD2 NIH/3T3 Assay” value came to 1.5 nM.

B2: ANTI-HUMAN ENTPD2 MAB19 (antibody, human IgG1, kappa, V domains shown)
VH: EVQLQQFGAELVKPGTSVKISCKASGYTFTDYNMDWVKQSHGKSLEWIGDINPNYDITTYNQRFKGKATLTVDKSSSTAYMELRSLTSEDTAVYYCARRGFFPYYGNSYYYFDVWGAGTTVTVSS
VL: QIVLTQSPTIMSASLGEEITLTCSASSSVSYMHWYQQKSGTSPKLLIYSTSNLASGVPSRFSGSGSGTFYSLTISSVEAEDAADYYCHQWSNYPWTFGGGTKLEIKR
With B2, the “IC50, ENTPD2 Biochemical Assay at 1 uM ATP” value (from here on “IC50 … at 1 uM ATP”) in assay [2] is 4.09 nM.

B3: ANTI-HUMAN ENTPD2 MAB20 (antibody, human IgG1, kappa, V domains shown)
VH: EVQLQQFGAELVKPGASVKISCKASGYTFTDYNMDWVKQSHGKSLEWIGDINPNYDITSYNQKFKGKATLTVDKSSSTAYMELRSLTSEDTAVYYCARRGFFLYYGSSYYYFDVWGAGTTVTVSS
VL: QIVLTQSPAIMSASLGEEITLTCSASSSVSYMHWYQQKSGTSPKLLIYSTSNLASGVPSRFSGSGSGTFYSLTISSVEAEDAADYYCHQWSSYPWTFGGGTKLEIKR
In the case of B3, in assay [2], the “IC50 … at 1 uM ATP” value stood at 17.5 nM.

B4: ANTI-HUMAN ENTPD2 MAB21 (antibody, human IgG1, kappa, V domains shown)
VH: EVQLQQSGPELVKPGASVKISCKTSGYTFTEYTMHWVKQSHGKSLEWIGGINPNNGITTYNQKFKGKATLTVDKSSSTAYMDLRSLTSEGSAVYYCARRGFPIYYYGTSLYYFDYWGQGTTLTVSS
VL: QIVLTQSPAIMSASLGEEITLTCSASSSVSYMHWYQQRSGTSPKLLIYTTSNLASGVPSRFSGSGSGTFYSLTISSVEAEDAADYYCHQWSSYPWTFGGGTKLEIKR
Consider B4, for which the “IC50 … at 1 uM ATP” value in assay [2] was 0.87 nM.

B5: ANTI-HUMAN ENTPD2 MAB12 (antibody, human IgG1, kappa, V domains shown)
VH: EVLLVESGGGLVQPGGSLRLSCAASGFTFNSCSMNWVRQAPGKGLEWVSYISSSSSTIYYADSVKGRFTISRDNAKNSLYLQMNSLKDEDTAVYYCARDQGNWNYDDYYNGLDVWGQGTTVTVSS
VL: not shown
On to B5, for which, in assay [1], the “% inhibition, Human ENTPD2 NIH/3T3 Assay” value was 68% and the “IC50, Human ENTPD2 NIH/3T3 Assay” value turned out to be 26.6 nM.

B6: ANTI-HUMAN ENTPD2 MAB16 (antibody, human IgG1, kappa, V domains shown)
VH: DIQLQESGPGLVKPSQSLSLTCSVTGYSITSGYYWNWIRQFPGNKLEWMGYISYDGDNNYNPSLKNRISITRDTSKNQFFLKLSSVTTEDTATYYCAGGYYRYGLSYYYVMDYWGQGTSVTVSS
VL: DTVLTQSPASLAVSLGQRATISCKASQSVDYDGNSYMNWYQQKPGQPPKLLIYAASNLESGIPARFSGSGSGTDFTLNIHPVEEEDAATYYCQQSNEDPPTFGGGTKLEIKR
On to B6, for which, in assay [2], the “IC50 … at 1 uM ATP” value worked out at 77.3 nM. Also, in assay [1], the “% inhibition, Human ENTPD2 NIH/3T3 Assay” value worked out at 30% and the “IC50, Human ENTPD2 NIH/3T3 Assay” value is over 133 nM. Moreover, in assay [3], the “% inhibition, Cyno ENTPD2 NIH/3T3 Assay” value was determined as 5% and the “IC50, Cyno ENTPD2 NIH/3T3 Assay” value was over 133 nM.

B7: ANTI-HUMAN ENTPD2 MAB18 (antibody, human IgG1, kappa, V domains shown)
VH: DIQLQESGPGLVKPSQSLSLTCSVTGYSITSGYYWNWIRQFPGNKLEWMGYISYDGDNNYNPSLKNRISITRDTSKNQFFLKLSSVTTEDTATYYCAGGYYRYGLGSYSGSYYYVMDYWGQGTSVTVSS
VL: DTVLTQSPASLAVSLGQRATISCKASQSVDYDGNSYMNWYQQKPGQPPKLLIYAASNLESGIPARFSGSGSGTDFTLNIHPVEEEDAATYYCQQSNEDPPTFGGGTKLEIKR
With B7, in assay [1], the “% inhibition, Human ENTPD2 NIH/3T3 Assay” value came out at 88% and the “IC50, Human ENTPD2 NIH/3T3 Assay” value amounted to 0.4 nM. For the same molecule, in assay [3], the “% inhibition, Cyno ENTPD2 NIH/3T3 Assay” value turned out to be 68% and the “IC50, Cyno ENTPD2 NIH/3T3 Assay” value is 20 nM.
